The supplement of paper PMC5998384

Tests used:
HeLa Kyoto [1] = experiment: solubility change mitosis vs G1/S (difference of NP-40 vs SDS log2 ratios) (log2 ratio difference); higher = more soluble in mitosis
HeLa Kyoto [2] = experiment: melting temperature (median over replicates), in situ; higher = more thermally stable
HeLa Kyoto [3] = experiment: solubility in G1/S (NP-40 vs SDS abundance) (log2 ratio); higher = more soluble; conditions: cell cycle stage: G1/S
HeLa Kyoto [4] = experiment: thermal stability score vs G1/S (z-score of summed log2 fold changes over temperatures); higher = more thermally stable than in G1/S
[5] = cell cycle stage: early G1 (4.5 h after nocodazole release)
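Wherever melting temperature (median over replicates), in situ is given: HeLa Kyoto cells synchronized by double thymidine or nocodazole block, proteins quantified by TMT10plex mass spectrometry, three independent biological replicates.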
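Wherever solubility change mitosis vs G1/S (difference of NP-40 vs SDS log2 ratios) is given: synchronized HeLa Kyoto cells (double thymidine block for G1/S, nocodazole release for mitosis), protein amounts in NP-40 versus SDS lysates quantified by mass spectrometry, three biological replicates.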
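Wherever solubility in G1/S (NP-40 vs SDS abundance) is given: HeLa Kyoto cells arrested at G1/S by double thymidine block, proteins quantified by TMT10plex mass spectrometry in mild NP-40 versus SDS extracts, three biological replicates.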
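Wherever thermal stability score vs G1/S (z-score of summed log2 fold changes over temperatures) is given: synchronized HeLa Kyoto cells, proteins quantified by TMT10plex mass spectrometry, three biological replicates, mitosis taken 0.5 h after nocodazole release, G1/S directly after double thymidine block.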

Sequence | solubility change mitosis (log2) (HeLa Kyoto [1]) | melting temperature (HeLa Kyoto [2]; cell cycle stage: G1/S) | melting temperature (HeLa Kyoto [2]; cell cycle stage: mitosis) | solubility in G1/S (log2) (HeLa Kyoto [3]) | thermal stability score (HeLa Kyoto [4]; [5]) | thermal stability score (HeLa Kyoto [4]; cell cycle stage: mitosis)
MLRSVWNFLKRHKKKCIFLGTVLGGVYILGKYGQKKIREIQEREAAEYIAQARRQYHFESNQRTCNMTVLSMLPTLREALMQQLNSESLTALLKNRPSNKLEIWEDLKIISFTRSTVAVYSTCMLVVLLRVQLNIIGGYIYLDNAAVGKNGTTILAPPDVQQQYLSSIQHLLGDGLTELITVIKQAVQKVLGSVSLKHSLSLLDLEQKLKEIRNLVEQHKSSSWINKDGSKPLLCHYMMPDEETPLAVQACGLSPRDITTIKLLNETRDMLESPDFSTVLNTCLNRGFSRLLDNMAEFFRPTEQDLQHGNSMNSLSSVSLPLAKIIPIVNGQIHSVCSETPSHFVQDLLTMEQVKDFAANVYEAFSTPQQLEK [PEX3] | -0.208 | 50 °C | 49 °C | 0.0923 | 0.401 | 0.184
MLRWLIGGGREPQGLAEKSPLQTIGEEQTQNPYTELLVLKAHHDIVRFLVQLDDYRFASAGDDGIVVVWNAQTGEKLLELNGHTQKITAIITFPSLESCEEKNQLILTASADRTVIVWDGDTTRQVQRISCFQSTVKCLTVLQRLDVWLSGGNDLCVWNRKLDLLCKTSHLSDTGISALVEIPKNCVVAAVGKELIIFRLVAPTEGSLEWDILEVKRLLDHQDNILSLINVNDLSFVTGSHVGELIIWDALDWTMQAYERNFWDPSPQLDTQQEIKLCQKSNDISIHHFTCDEENVFAAVGRGLYVYSLQMKRVIACQKTAHDSNVLHVARLPNRQLISCSEDGSVRIWELREKQQLAAEPVPTGFFNMWGFGRVSKQASQPVKKQQENATSCSLELIGDLIGHSSSVEMFLYFEDHGLVTCSADHLIILWKNGERESGLRSLRLFQKLEENGDLYLAV [WDR41] | -0.21 | 52.8 °C | 53.4 °C | 0.0666 | -1.29 | -1.46
MLSPQRVAAAASRGADDAMESSKPGPVQVVLVQKDQHSFELDEKALASILLQDHIRDLDVVVVSVAGAFRKGKSFILDFMLRYLYSQKESGHSNWLGDPEEPLTGFSWRGGSDPETTGIQIWSEVFTVEKPGGKKVAVVLMDTQGAFDSQSTVKDCATIFALSTMTSSVQIYNLSQNIQEDDLQQLQLFTEYGRLAMDEIFQKPFQTLMFLVRDWSFPYEYSYGLQGGMAFLDKRLQVKEHQHEEIQNVRNHIHSCFSDVTCFLLPHPGLQVATSPDFDGKLKDIAGEFKEQLQALIPYVLNPSKLMEKEINGSKVTCRGLLEYFKAYIKIYQGEDLPHPKSMLQATAEANNLAAAASAKDIYYNNMEEVCGGEKPYLSPDILEEKHCEFKQLALDHFKKTKKMGGKDFSFRYQQELEEEIKELYENFCKHNGSKNVFSTFRTPAVLFTGIVALYIASGLTGFIGLEVVAQLFNCMVGLLLIALLTWGYIRYSGQYRELGGAIDFGAAYVLEQASSHIGNSTQATVRDAVVGRPSMDKKAQ [ATL3] | -0.139 | 52.2 °C | 51.7 °C | -0.00471 | -0.0896 | 0.487
MLSRSRCVSRAFSRSLSAFQKGNCPLGRRSLPGVSLCQGPGYPNSRKVVINNSVFSVRFFRTTAVCKDDLVTVKTPAFAESVTEGDVRWEKAVGDTVAEDEVVCEIETDKTSVQVPSPANGVIEALLVPDGGKVEGGTPLFTLRKTGAAPAKAKPAEAPAAAAPKAEPTAAAVPPPAAPIPTQMPPVPSPSQPPSGKPVSAVKPTVAPPLAEPGAGKGLRSEHREKMNRMRQRIAQRLKEAQNTCAMLTTFNEIDMSNIQEMRARHKEAFLKKHNLKLGFMSAFVKASAFALQEQPVVNAVIDDTTKEVVYRDYIDISVAVATPRGLVVPVIRNVEAMNFADIERTITELGEKARKNELAIEDMDGGTFTISNGGVFGSLFGTPIINPPQSAILGMHGIFDRPVAIGGKVEVRPMMYVALTYDHRLIDGREAVTFLRKIKAAVEDPRVLLLDL [DLST] | -0.0493 | 61.7 °C | 65.9 °C | 0.0922 | -2.5 | -3.04
MLSRVVLSAAATAAPSLKNAAFLGPGVLQATRTFHTGQPHLVPVPPLPEYGGKVRYGLIPEEFFQFLYPKTGVTGPYVLGTGLILYALSKEIYVISAETFTALSVLGVMVYGIKKYGPFVADFADKLNEQKLAQLEEAKQASIQHIQNAIDTEKSQQALVQKRHYLFDVQRNNIAMALEVTYRERLYRVYKEVKNRLDYHISVQNMMRRKEQEHMINWVEKHVVQSISTQQEKETIAKCIADLKLLAKKAQAQPVM [ATP5F1] | 0.116 | 52.8 °C | 53.8 °C | 0.102 | -0.0719 | -1.2
